Laboratory results published in the supplement of paper PMC12667976.
± gives the standard error.

B1: library; numbered along this chain (parent)
chain: MATDAALRRLLRLHRTEIAVAVDSAFPLLHALADHDVVPEDKFQETLHLKEKEGCPQAFHALLSWLLTQDSTAILDFWRVLFKDYNLERYGRLQPILDSFPKDVDLSQPRKGRKPPAVPKALVPPPRLPTKRKASEEARAAAPAALTPRGTASPGSQLKAKPPKKPESSAEQQRLPLGNGIQTMSASVQRAVAMSSGDVPGARGAVEGILIQQVFESGGSKKCIQVGGEFYTPSKFEDSGSGKNKARSSSGPKPLVRAKGAQGAAPGGGEARLGQQGSVPAPLALPSDPQLHQKNEDECAVCRDGGELICCDGCPRAFHLACLSPPLREIPSGTWRCSSCLQATVQEVQPRAEEPRPQEPPVETPLPPGLRSAGEEVRGPPGEPLAGMDTTLVYKHLPAPPSAAPLPGLDSSALHPLLCVGPEGQQNLAPGARCGVCGDGTDVLRCTHCAAAFHWRCHFPAGTSRPGTGLRCRSCSGDVTPAPVEGVLAPSPARLAPGPAKDDTASHEPALHRDDLESLLSEHTFDGILQWAIQSMARPAAPFPS

Variants of: B1
Assay: AIRE transcriptional activation functional score (insulin promoter-GFP; nonsense median 0, synonymous median 1) (normalised score); higher = higher AIRE activity (more reporter activation)
Conditions: with insulin promoter-GFP reporter in HEK293
Method: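 Deep mutational scan of full-length human AIRE (codon-optimized cDNA, DT-POPCode NNN libraries over three regions) integrated at a Bxb1 landing pad in HEK293 cells carrying an insulin core promoter-GFP reporter at a Flp-In site. Cells were sorted for the top 10% GFP about 14 days after transfection. Variant frequency log-ratios (select vs non-select, TileSeq) were rescaled so that the nonsense median is 0 and the synonymous median is 1, then averaged over biological replicates.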

| Variant | AIRE transcriptional activation functional score |
| --- | --- |
| D238S | 0.788 ± 0.4 |
| D238H | 1.34 ± 0.25 |
| D238K | 0.355 ± 0.12 |
| D238N | 0.588 ± 0.26 |
| D238C | 1.24 ± 0.15 |
| D238V | 1.23 ± 0.14 |
| D238F | 1.04 ± 0.14 |
| D238R | 0.333 ± 0.33 |
| D238A | 1.15 ± 0.37 |
| D238I | 1.27 ± 0.18 |
| D238M | 0.876 ± 0.11 |
| D238T | 0.755 ± 0.16 |
| D238L | 1.13 ± 0.16 |
| N244F | 1.08 ± 0.084 |
| N244R | 0.573 ± 0.29 |
| N244M | -0.168 ± 0.073 |
| N244E | 0.249 ± 0.19 |
| N244T | 1.14 ± 0.11 |
| N244A | 0.269 ± 0.054 |
| N244D | 1.1 ± 0.091 |
| N244H | 0.405 ± 0.17 |
| N244C | 0.374 ± 0.65 |
| N244L | 0.301 ± 0.25 |
| N244Q | 1.19 ± 0.12 |

| Variant | AIRE transcriptional activation functional score |
| --- | --- |
| N244S | 1.3 ± 0.19 |
| N244V | 0.206 ± 0.086 |
| N244I | 1.07 ± 1.1 |
| N244K | -0.184 ± 0.41 |
| N244G | 0.138 ± 0.71 |
| N244Y | 1.25 ± 0.29 |
| A246R | 0.482 ± 0.19 |
| A246L | 1 ± 0.36 |
| A246I | 0.408 ± 0.11 |
| A246H | 1.42 ± 0.31 |
| A246F | 1.39 ± 0.099 |
| A246K | 0.609 ± 0.081 |
| A246E | 0.55 ± 0.12 |
| A246Q | -0.0407 ± 0.11 |
| A246S | 0.759 ± 0.27 |
| A246P | 1.05 ± 0.29 |
| A246N | 0.102 ± 0.052 |
| A246G | 0.693 ± 0.25 |
| A246T | 0.841 ± 0.41 |
| A246W | 1.47 ± 0.047 |
| A246C | 1.22 ± 0.087 |
| A246D | 0.858 ± 0.022 |
| A246Y | 1.43 ± 0.18 |
| A246V | 1.12 ± 0.29 |

| Variant | AIRE transcriptional activation functional score |
| --- | --- |
| S250P | -0.109 ± 0.13 |
| S250N | 0.847 ± 0.16 |
| S250F | 1.13 ± 0.099 |
| S250V | 1.1 ± 0.27 |
| S250K | 0.556 ± 0.53 |
| S250G | 0.835 ± 0.23 |
| S250C | 1.23 ± 0.098 |
| S250T | 0.687 ± 0.16 |
| S250E | 0.4 ± 0.58 |
| S250M | 1.68 ± 0.041 |
| S250A | 0.792 ± 0.13 |
| S250Q | -0.615 ± 0.34 |
| S250I | 1.11 ± 0.26 |
| S250H | 0.963 ± 0.23 |
| S250R | 0.0524 ± 0.41 |
| S250L | 1.02 ± 0.34 |
| S250D | 0.427 ± 0.25 |
| T232N | 0.834 ± 0.11 |
| T232Q | 1.38 ± 0.083 |
| T232E | 1.05 ± 0.18 |
| T232V | 1.07 ± 0.18 |
| T232K | 1.16 ± 0.13 |
| T232L | 1.1 ± 0.32 |
| T232S | 1.15 ± 0.71 |

| Variant | AIRE transcriptional activation functional score |
| --- | --- |
| T232G | 0.941 ± 0.22 |
| T232F | -0.0868 ± 0.094 |
| T232I | 0.928 ± 0.34 |
| T232R | 1.18 ± 0.2 |
| T232W | 0.451 ± 0.055 |
| T232P | 0.894 ± 0.34 |
| T232M | 1.22 ± 0.026 |
| T232H | 0.729 ± 0.14 |
| T232Y | 0.775 ± 0.18 |
| P233D | 0.675 ± 0.056 |
| P233I | 0.184 ± 0.24 |
| P233Q | 0.416 ± 0.16 |
| P233H | 1.29 ± 0.15 |
| P233V | 0.512 ± 0.2 |
| P233C | 1.17 ± 0.091 |
| P233L | 0.385 ± 0.12 |
| P233A | 1.09 ± 0.13 |
| P233K | 0.232 ± 0.13 |
| P233Y | 0.576 ± 0.39 |
| P233F | -0.0788 ± 0.3 |
| P233N | 1.51 ± 0.2 |
| P233R | 1.18 ± 0.23 |
| P233S | 1.01 ± 0.3 |
| P233T | 1.07 ± 0.048 |

| Variant | AIRE transcriptional activation functional score |
| --- | --- |
| P233G | 1.15 ± 0.044 |
| K243S | 1 ± 0.5 |
| K243Q | 0.804 ± 0.042 |
| K243M | 1.31 ± 0.057 |
| K243L | 1.47 ± 0.22 |
| K243E | 0.511 ± 0.13 |
| K243R | 1.1 ± 0.42 |
| K243N | 1.06 ± 0.12 |
| K243V | 0.856 ± 0.35 |
| K243Y | -0.257 ± 0.13 |
| K243C | 0.711 ± 0.25 |
| K243H | 1.02 ± 0.046 |
| K243W | 1.3 ± 0.024 |
| K243D | 0.0348 ± 0.23 |
| K243T | 1.08 ± 0.15 |
| K243I | 1.02 ± 0.36 |
| K243A | 0.56 ± 0.47 |
| K243F | 0.81 ± 0.45 |
| K243G | 1.03 ± 0.18 |
| K243P | 0.97 ± 0.07 |
| K235N | 0.479 ± 0.43 |
| K235Q | 1.04 ± 0.24 |
| K235W | 1.15 ± 0.051 |
| K235E | 0.408 ± 0.17 |

| Variant | AIRE transcriptional activation functional score |
| --- | --- |
| K235M | 1.33 ± 0.087 |
| K235S | 0.877 ± 0.46 |
| K235F | 0.827 ± 0.3 |
| K235C | 1.5 ± 0.14 |
| K235H | 0.221 ± 0.2 |
| K235P | 1.43 ± 0.39 |
| K235Y | 1.01 ± 0.34 |
| K235G | 1.17 ± 0.43 |
| K235T | 0.985 ± 0.098 |
| K235A | 0.515 ± 0.17 |
| K235R | 1.19 ± 0.28 |
| K235L | 0.897 ± 0.23 |
| K235I | 0.627 ± 0.32 |
| K235V | 1.45 ± 0.27 |
| G242S | 0.694 ± 0.36 |
| G242F | 1.23 ± 0.046 |
| G242I | -0.56 ± 0.23 |
| G242Y | 1.6 ± 0.054 |
| G242E | 0.0818 ± 0.052 |
| G242Q | 0.988 ± 0.47 |
| G242T | -0.775 ± 0.4 |
| G242L | 1.13 ± 0.19 |
| G242R | 0.611 ± 0.3 |
| G242K | 0.747 ± 0.2 |

| Variant | AIRE transcriptional activation functional score |
| --- | --- |
| G242C | 1.06 ± 0.092 |
| G242D | 0.951 ± 0.22 |
| G242P | 0.412 ± 0.71 |
| G242W | 0.936 ± 0.021 |
| G242V | 1.04 ± 0.1 |
| G242A | 1.19 ± 0.18 |
| S234R | 1.21 ± 0.29 |
| S234P | 1.19 ± 0.16 |
| S234T | 0.61 ± 0.63 |
| S234W | 0.775 ± 0.023 |
| S234M | 1.15 ± 0.059 |
| S234V | 1.19 ± 0.26 |
| S234F | 1.31 ± 0.12 |
| S234C | 1.53 ± 0.19 |
| S234L | 1.04 ± 0.18 |
| S234G | 1.16 ± 0.21 |
| S234I | 0.96 ± 0.64 |
| S234A | 1.24 ± 0.36 |
| S234D | -0.22 ± 0.2 |
| S234K | 0.869 ± 0.12 |
| S234Y | 1.11 ± 0.11 |
| S234Q | 1.22 ± 0.097 |
| S234E | 0.552 ± 0.23 |
